Source: publication PMC3507856, “Two glutamic acid residues in the DNA-binding domain are engaged in the release of STAT1 dimers from DNA” (BMC Cell Biology, 2012)
Values joined by “and” are separate entries in the source; they are usually repeats but may differ in a detail not shown here. Identical values can stand only once.

T1: endogenous (native) STAT1 of HeLa cells (human (endogenous in HeLa)), P42224
T1 chain: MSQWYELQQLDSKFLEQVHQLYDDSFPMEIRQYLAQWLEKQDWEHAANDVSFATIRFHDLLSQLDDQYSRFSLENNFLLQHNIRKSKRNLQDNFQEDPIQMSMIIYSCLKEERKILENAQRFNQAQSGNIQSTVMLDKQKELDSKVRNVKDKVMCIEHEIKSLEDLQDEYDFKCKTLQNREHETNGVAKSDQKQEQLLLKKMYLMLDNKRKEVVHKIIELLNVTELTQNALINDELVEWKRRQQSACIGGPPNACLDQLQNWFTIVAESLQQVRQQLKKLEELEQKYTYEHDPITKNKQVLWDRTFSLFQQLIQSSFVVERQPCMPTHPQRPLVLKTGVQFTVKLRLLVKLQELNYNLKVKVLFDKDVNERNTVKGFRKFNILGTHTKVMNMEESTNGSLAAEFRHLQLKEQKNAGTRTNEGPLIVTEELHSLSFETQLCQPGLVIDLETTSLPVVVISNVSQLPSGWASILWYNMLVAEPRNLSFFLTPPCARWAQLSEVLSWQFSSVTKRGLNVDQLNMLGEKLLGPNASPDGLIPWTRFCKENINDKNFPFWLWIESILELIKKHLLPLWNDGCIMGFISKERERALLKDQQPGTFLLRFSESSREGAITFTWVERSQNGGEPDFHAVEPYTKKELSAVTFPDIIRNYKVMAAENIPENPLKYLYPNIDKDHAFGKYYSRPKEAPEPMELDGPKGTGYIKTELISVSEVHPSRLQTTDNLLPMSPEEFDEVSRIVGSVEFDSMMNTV


Tests used:
[1] = target: the molecule itself; assay: native gel or EMSA; whole cell lysates of HeLa cells (IFNγ 45 min, then staurosporine for the durations indicated) incubated in vitro with 32P-labelled M67 DNA (single high-affinity GAS site); STAT1 dimers seen as DNA-bound complexes on a 4% acrylamide gel at 4°C; homo- and heterodimers told apart by mobility
[2] = target: the molecule itself; assay: native gel or EMSA; extracts of IFNγ-stimulated U3A cells incubated in vitro with 32P-labelled DNA containing a tandem GAS site; unchallenged or challenged for 30 min with a 750-fold molar excess of a single unlabelled GAS site (M67); dimeric and tetrameric STAT1 seen as DNA-bound complexes
[3] = target: T1, endogenous (native) STAT1 of HeLa cells …; assay: native gel or EMSA; whole cell lysates of HeLa cells (IFNγ 45 min, then staurosporine for the durations indicated) incubated in vitro with 32P-labelled M67 DNA (single high-affinity GAS site); STAT1 dimers seen as DNA-bound complexes on a 4% acrylamide gel at 4°C; homo- and heterodimers told apart by mobility; conditions: remark: other sources report otherwise

Row | Binder | stoichiometry N [1] | stoichiometry N [2] | further results
1 | STAT1-WT-GFP (wild-type human STAT1 fused to green fluorescent protein) (natural protein, UniProt P42224 1-746, looked up, tyrosine-phosphorylated (phospho-Tyr701) after stimulation of cells with IFNγ, also called STAT1-GFP; GFP-tagged wild-type STAT1; source: HeLa cells, transfected (pEGFP-N1-STAT1), IFNγ-stimulated, in whole cell lysate; not shown: GFP, C-terminal, kept) MSQWYELQQLDSKFLEQVHQLYDDSFPMEIRQYLAQWLEKQDWEHAANDVSFATIRFHDLLSQLDDQYSRFSLENNFLLQHNIRKSKRNLQDNFQEDPIQMSMIIYSCLKEERKILENAQRFNQAQSGNIQSTVMLDKQKELDSKVRNVKDKVMCIEHEIKSLEDLQDEYDFKCKTLQNREHETNGVAKSDQKQEQLLLKKMYLMLDNKRKEVVHKIIELLNVTELTQNALINDELVEWKRRQQSACIGGPPNACLDQLQNWFTIVAESLQQVRQQLKKLEELEQKYTYEHDPITKNKQVLWDRTFSLFQQLIQSSFVVERQPCMPTHPQRPLVLKTGVQFTVKLRLLVKLQELNYNLKVKVLFDKDVNERNTVKGFRKFNILGTHTKVMNMEESTNGSLAAEFRHLQLKEQKNAGTRTNEGPLIVTEELHSLSFETQLCQPGLVIDLETTSLPVVVISNVSQLPSGWASILWYNMLVAEPRNLSFFLTPPCARWAQLSEVLSWQFSSVTKRGLNVDQLNMLGEKLLGPNASPDGLIPWTRFCKENINDKNFPFWLWIESILELIKKHLLPLWNDGCIMGFISKERERALLKDQQPGTFLLRFSESSREGAITFTWVERSQNGGEPDFHAVEPYTKKELSAVTFPDIIRNYKVMAAENIPENPLKYLYPNIDKDHAFGKYYSRPKEAPEPMELDGPKGTGYIKTELISVSEVHPSRLQTTDNLLPMSPEEFDEVSRIVGSVEFDSM | 2 | – | –
2 | wild-type STAT1 expressed in STAT1-negative U3A cells (natural protein, human, UniProt P42224 1-746, looked up, tyrosine-phosphorylated after stimulation of cells with IFNγ, STAT1, human; also called STAT1-WT; source: U3A cells, transfected, IFNγ-stimulated, in cell extract) MSQWYELQQLDSKFLEQVHQLYDDSFPMEIRQYLAQWLEKQDWEHAANDVSFATIRFHDLLSQLDDQYSRFSLENNFLLQHNIRKSKRNLQDNFQEDPIQMSMIIYSCLKEERKILENAQRFNQAQSGNIQSTVMLDKQKELDSKVRNVKDKVMCIEHEIKSLEDLQDEYDFKCKTLQNREHETNGVAKSDQKQEQLLLKKMYLMLDNKRKEVVHKIIELLNVTELTQNALINDELVEWKRRQQSACIGGPPNACLDQLQNWFTIVAESLQQVRQQLKKLEELEQKYTYEHDPITKNKQVLWDRTFSLFQQLIQSSFVVERQPCMPTHPQRPLVLKTGVQFTVKLRLLVKLQELNYNLKVKVLFDKDVNERNTVKGFRKFNILGTHTKVMNMEESTNGSLAAEFRHLQLKEQKNAGTRTNEGPLIVTEELHSLSFETQLCQPGLVIDLETTSLPVVVISNVSQLPSGWASILWYNMLVAEPRNLSFFLTPPCARWAQLSEVLSWQFSSVTKRGLNVDQLNMLGEKLLGPNASPDGLIPWTRFCKENINDKNFPFWLWIESILELIKKHLLPLWNDGCIMGFISKERERALLKDQQPGTFLLRFSESSREGAITFTWVERSQNGGEPDFHAVEPYTKKELSAVTFPDIIRNYKVMAAENIPENPLKYLYPNIDKDHAFGKYYSRPKEAPEPMELDGPKGTGYIKTELISVSEVHPSRLQTTDNLLPMSPEEFDEVSRIVGSVEFDSM | – | 2 and 4 | –
3 | STAT1-E411A expressed in STAT1-negative U3A cells (natural protein, human, UniProt P42224 1-746, looked up, tyrosine-phosphorylated after stimulation of cells with IFNγ, STAT1, human; glutamic acid 411 changed to alanine; also called E411A mutant; mutant STAT1; source: U3A cells, transfected, IFNγ-stimulated, in cell extract) MSQWYELQQLDSKFLEQVHQLYDDSFPMEIRQYLAQWLEKQDWEHAANDVSFATIRFHDLLSQLDDQYSRFSLENNFLLQHNIRKSKRNLQDNFQEDPIQMSMIIYSCLKEERKILENAQRFNQAQSGNIQSTVMLDKQKELDSKVRNVKDKVMCIEHEIKSLEDLQDEYDFKCKTLQNREHETNGVAKSDQKQEQLLLKKMYLMLDNKRKEVVHKIIELLNVTELTQNALINDELVEWKRRQQSACIGGPPNACLDQLQNWFTIVAESLQQVRQQLKKLEELEQKYTYEHDPITKNKQVLWDRTFSLFQQLIQSSFVVERQPCMPTHPQRPLVLKTGVQFTVKLRLLVKLQELNYNLKVKVLFDKDVNERNTVKGFRKFNILGTHTKVMNMEESTNGSLAAEFRHLQLKAQKNAGTRTNEGPLIVTEELHSLSFETQLCQPGLVIDLETTSLPVVVISNVSQLPSGWASILWYNMLVAEPRNLSFFLTPPCARWAQLSEVLSWQFSSVTKRGLNVDQLNMLGEKLLGPNASPDGLIPWTRFCKENINDKNFPFWLWIESILELIKKHLLPLWNDGCIMGFISKERERALLKDQQPGTFLLRFSESSREGAITFTWVERSQNGGEPDFHAVEPYTKKELSAVTFPDIIRNYKVMAAENIPENPLKYLYPNIDKDHAFGKYYSRPKEAPEPMELDGPKGTGYIKTELISVSEVHPSRLQTTDNLLPMSPEEFDEVSRIVGSVEFDSM | – | 2 and 4 | –
4 | STAT1-E411A-GFP (natural protein, human, UniProt P42224 1-746, looked up, tyrosine-phosphorylated (phospho-Tyr701) after stimulation of cells with IFNγ, STAT1, human; also called E411 mutant; source: HeLa cells, transfected (pEGFP-N1-STAT1 with point mutation), IFNγ-stimulated, in whole cell lysate; not shown: GFP, C-terminal, kept) MSQWYELQQLDSKFLEQVHQLYDDSFPMEIRQYLAQWLEKQDWEHAANDVSFATIRFHDLLSQLDDQYSRFSLENNFLLQHNIRKSKRNLQDNFQEDPIQMSMIIYSCLKEERKILENAQRFNQAQSGNIQSTVMLDKQKELDSKVRNVKDKVMCIEHEIKSLEDLQDEYDFKCKTLQNREHETNGVAKSDQKQEQLLLKKMYLMLDNKRKEVVHKIIELLNVTELTQNALINDELVEWKRRQQSACIGGPPNACLDQLQNWFTIVAESLQQVRQQLKKLEELEQKYTYEHDPITKNKQVLWDRTFSLFQQLIQSSFVVERQPCMPTHPQRPLVLKTGVQFTVKLRLLVKLQELNYNLKVKVLFDKDVNERNTVKGFRKFNILGTHTKVMNMEESTNGSLAAEFRHLQLKAQKNAGTRTNEGPLIVTEELHSLSFETQLCQPGLVIDLETTSLPVVVISNVSQLPSGWASILWYNMLVAEPRNLSFFLTPPCARWAQLSEVLSWQFSSVTKRGLNVDQLNMLGEKLLGPNASPDGLIPWTRFCKENINDKNFPFWLWIESILELIKKHLLPLWNDGCIMGFISKERERALLKDQQPGTFLLRFSESSREGAITFTWVERSQNGGEPDFHAVEPYTKKELSAVTFPDIIRNYKVMAAENIPENPLKYLYPNIDKDHAFGKYYSRPKEAPEPMELDGPKGTGYIKTELISVSEVHPSRLQTTDNLLPMSPEEFDEVSRIVGSVEFDSM | 2 | – | –
5 | endogenous (native) STAT1 of HeLa cells, P42224 1-750 (natural protein, here or on the partner: tyrosine-phosphorylated (phospho-Tyr701) after stimulation of cells with IFNγ; tyrosine-phosphorylated (phospho-Tyr701) after stimulation of cells with IFNγ) MSQWYELQQLDSKFLEQVHQLYDDSFPMEIRQYLAQWLEKQDWEHAANDVSFATIRFHDLLSQLDDQYSRFSLENNFLLQHNIRKSKRNLQDNFQEDPIQMSMIIYSCLKEERKILENAQRFNQAQSGNIQSTVMLDKQKELDSKVRNVKDKVMCIEHEIKSLEDLQDEYDFKCKTLQNREHETNGVAKSDQKQEQLLLKKMYLMLDNKRKEVVHKIIELLNVTELTQNALINDELVEWKRRQQSACIGGPPNACLDQLQNWFTIVAESLQQVRQQLKKLEELEQKYTYEHDPITKNKQVLWDRTFSLFQQLIQSSFVVERQPCMPTHPQRPLVLKTGVQFTVKLRLLVKLQELNYNLKVKVLFDKDVNERNTVKGFRKFNILGTHTKVMNMEESTNGSLAAEFRHLQLKEQKNAGTRTNEGPLIVTEELHSLSFETQLCQPGLVIDLETTSLPVVVISNVSQLPSGWASILWYNMLVAEPRNLSFFLTPPCARWAQLSEVLSWQFSSVTKRGLNVDQLNMLGEKLLGPNASPDGLIPWTRFCKENINDKNFPFWLWIESILELIKKHLLPLWNDGCIMGFISKERERALLKDQQPGTFLLRFSESSREGAITFTWVERSQNGGEPDFHAVEPYTKKELSAVTFPDIIRNYKVMAAENIPENPLKYLYPNIDKDHAFGKYYSRPKEAPEPMELDGPKGTGYIKTELISVSEVHPSRLQTTDNLLPMSPEEFDEVSRIVGSVEFDSMMNTV | – | – | stoichiometry N [3]: 2
